According to article PMC9598255:

B1: TMPRSS2 (transmembrane protease serine 2): N286Q (protein)
parent chain: MPPAPPGGESGCEERGAAGHIEHSRYLSLLDAVDNSKMALNSGSPPAIGPYYENHGYQPENPYPAQPTVVPTVYEVHPAQYYPSPVPQYAPRVLTQASNPVVCTQPKSPSGTVCTSKTKKALCITLTLGTFLVGAALAAGLLWKFMGSKCSNSGIECDSSGTCINPSNWCDGVSHCPGGEDENRCVRLYGPNFILQVYSSQRKSWHPVCQDDWNENYGRAACRDMGYKNNFYSSQGIVDDSGSTSFMKLNTSAGNVDIYKKLYHSDACSSKAVVSLRCIACGVNLNSSRQSRIVGGESALPGAWPWQVSLHVQNVHVCGGSIITPEWIVTAAHCVEKPLNNPWHWTAFAGILRQSFMFYGAGYQVEKVISHPNYDSKTKNNDIALMKLQKPLTFNDLVKPVCLPNPGMMLQPEQLCWISGWGATEEKGKTSEVLNAAKVLLIETQRCNSRYVYDNLITPAMICAGFLQGNVDSCQGDSGGPLVTSKNNIWWLIGDTSWGSGCAKAYRPGVYGNVMVFTDWIYRQMRADG
B2: TMPRSS2 (transmembrane protease serine 2): N250Q (protein)
parent chain: MPPAPPGGESGCEERGAAGHIEHSRYLSLLDAVDNSKMALNSGSPPAIGPYYENHGYQPENPYPAQPTVVPTVYEVHPAQYYPSPVPQYAPRVLTQASNPVVCTQPKSPSGTVCTSKTKKALCITLTLGTFLVGAALAAGLLWKFMGSKCSNSGIECDSSGTCINPSNWCDGVSHCPGGEDENRCVRLYGPNFILQVYSSQRKSWHPVCQDDWNENYGRAACRDMGYKNNFYSSQGIVDDSGSTSFMKLNTSAGNVDIYKKLYHSDACSSKAVVSLRCIACGVNLNSSRQSRIVGGESALPGAWPWQVSLHVQNVHVCGGSIITPEWIVTAAHCVEKPLNNPWHWTAFAGILRQSFMFYGAGYQVEKVISHPNYDSKTKNNDIALMKLQKPLTFNDLVKPVCLPNPGMMLQPEQLCWISGWGATEEKGKTSEVLNAAKVLLIETQRCNSRYVYDNLITPAMICAGFLQGNVDSCQGDSGGPLVTSKNNIWWLIGDTSWGSGCAKAYRPGVYGNVMVFTDWIYRQMRADG
B3: TMPRSS2 (transmembrane protease serine 2): N250Q/N286Q (protein)
parent chain: MPPAPPGGESGCEERGAAGHIEHSRYLSLLDAVDNSKMALNSGSPPAIGPYYENHGYQPENPYPAQPTVVPTVYEVHPAQYYPSPVPQYAPRVLTQASNPVVCTQPKSPSGTVCTSKTKKALCITLTLGTFLVGAALAAGLLWKFMGSKCSNSGIECDSSGTCINPSNWCDGVSHCPGGEDENRCVRLYGPNFILQVYSSQRKSWHPVCQDDWNENYGRAACRDMGYKNNFYSSQGIVDDSGSTSFMKLNTSAGNVDIYKKLYHSDACSSKAVVSLRCIACGVNLNSSRQSRIVGGESALPGAWPWQVSLHVQNVHVCGGSIITPEWIVTAAHCVEKPLNNPWHWTAFAGILRQSFMFYGAGYQVEKVISHPNYDSKTKNNDIALMKLQKPLTFNDLVKPVCLPNPGMMLQPEQLCWISGWGATEEKGKTSEVLNAAKVLLIETQRCNSRYVYDNLITPAMICAGFLQGNVDSCQGDSGGPLVTSKNNIWWLIGDTSWGSGCAKAYRPGVYGNVMVFTDWIYRQMRADG

Tests used:
Conditions in all cases: glycan lost; control: wild type
[1] = flow cytometry of cell surface TMPRSS2, HEK293
[2] = co-immunostaining with ER marker KDEL, HEK293
[3] = co-immunostaining with Golgi marker GM130, HEK293

Protein	localisation_or_trafficking [1]	localisation_or_trafficking [2]	localisation_or_trafficking [3]
B1	no change	no change	no change
B2	–	changes	no change
B3	–	changes	–
